From US20210269790A1

Biological target: FKBP12-Gag^HIV fusion protein (FKBP12 domain added to the N-terminal of Gag of HIV) (human immunodeficiency virus (HIV))
Experiment: cell-based or functional assay
Settings: scale: times

Work on “luciferase protein fused with an FRB domain (FRB-Luc) (from UniProt P42345 2021-2113)” yielded a luciferase activity in HEK293T cells 16 hours after introduction of VLPs of 12.
